Here are results for 41 molecules from publication PMC11417369, “DNA sequence and chromatin differentiate sequence-specific transcription factor binding in the human malaria parasite Plasmodium falciparum”.

T1: AP2-G D1 (Plasmodium falciparum, UniProt Q8I5I9 2123-2245)
T1 sequence: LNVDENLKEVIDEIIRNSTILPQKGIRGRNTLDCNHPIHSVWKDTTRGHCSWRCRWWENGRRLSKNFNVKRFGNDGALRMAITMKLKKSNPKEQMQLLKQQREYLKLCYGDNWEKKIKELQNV

B1: XGTACX_negctrl_site296 (dsDNA)
DNA 1: AATGAATTTAATTCTACTATTTTTTTTTTAAATATT
DNA 2: AATATTTAAAAAAAAAATAGTAGAATTAAATTCATT
B2: XGTACX_negctrl_site342 (dsDNA)
DNA 1: ATGAACGGAAAAATATATATAAATATATATATCATG
DNA 2: CATGATATATATATTTATATATATTTTTCCGTTCAT
B3: XGTACX_negctrl_site55 (dsDNA)
DNA 1: ATGGAATATTTCATGATTTTTTTAATTTTTTTATTG
DNA 2: CAATAAAAAAATTAAAAAAATCATGAAATATTCCAT
B4: XGTACX_negctrl_site207 (dsDNA)
DNA 1: TTTTTATTTAATATTTTAAAAAAAAATCATTTTTAA
DNA 2: TTAAAAATGATTTTTTTTTAAAATATTAAATAAAAA
B5: XGTACX_negctrl_site205 (dsDNA)
DNA 1: AACAATATATTGATATTATTTTAAGTGATTATATAT
DNA 2: ATATATAATCACTTAAAATAATATCAATATATTGTT
B6: XGTACX_negctrl_site612 (dsDNA)
DNA 1: TAAACATTTTTAATTTTGTAAAATTTTAAATAAAAA
DNA 2: TTTTTATTTAAAATTTTACAAAATTAAAAATGTTTA
B7: XGTACX_negctrl_site606 (dsDNA)
DNA 1: TTTTTATATATATGTATAAATATTTTTTCTATTTAT
DNA 2: ATAAATAGAAAAAATATTTATACATATATATAAAAA
B8: XGTACX_negctrl_site539 (dsDNA)
DNA 1: TAAGGATAAATAAAATGAAATGAAATAAATAAATGA
DNA 2: TCATTTATTTATTTCATTTCATTTTATTTATCCTTA
B9: XGTACX_negctrl_site68 (dsDNA)
DNA 1: AATATAGAAATAAATATATCACATTTGTGTTTAAAC
DNA 2: GTTTAAACACAAATGTGATATATTTATTTCTATATT
B10: XGTACX_negctrl_site390 (dsDNA)
DNA 1: TTATGAATATTGATGTATAAAAAAATATATATGTTA
DNA 2: TAACATATATATTTTTTTATACATCAATATTCATAA
B11: XGTACX_negctrl_site148 (dsDNA)
DNA 1: TTAAAACATATTTTGAATTAATATATTTTAATATTA
DNA 2: TAATATTAAAATATATTAATTCAAAATATGTTTTAA
B12: XGTACX_negctrl_site402 (dsDNA)
DNA 1: AAAAGAATAATAATTTATGTATATTAATTAAAGAAT
DNA 2: ATTCTTTAATTAATATACATAAATTATTATTCTTTT
B13: XGTACX_negctrl_site414 (dsDNA)
DNA 1: TATCTTTTTATTTTTTATTTTTTTTTTATAATTTAC
DNA 2: GTAAATTATAAAAAAAAAATAAAAAATAAAAAGATA
B14: XGTACX_negctrl_site100 (dsDNA)
DNA 1: TTTATATTATAATATAATAATGATCTTAATTTTTTT
DNA 2: AAAAAAATTAAGATCATTATTATATTATAATATAAA
B15: XGTACX_negctrl_site482 (dsDNA)
DNA 1: AGAAAAAACAAAAGAGAAATGAAAAAAAAAAAAAAA
DNA 2: TTTTTTTTTTTTTTTCATTTCTCTTTTGTTTTTTCT
B16: XGTACX_negctrl_site499 (dsDNA)
DNA 1: TTTTACTATGATATTTATATATCTATATATGTATAT
DNA 2: ATATACATATATAGATATATAAATATCATAGTAAAA
B17: XGTACX_negctrl_site44 (dsDNA)
DNA 1: AAATTAAAATAATAATTCTACAAATTAATTTATCAT
DNA 2: ATGATAAATTAATTTGTAGAATTATTATTTTAATTT
B18: XGTACX_negctrl_site416 (dsDNA)
DNA 1: TATTTCAAAATAAAATAAAATATATATATATGTATA
DNA 2: TATACATATATATATATTTTATTTTATTTTGAAATA
B19: XGTACX_negctrl_site298 (dsDNA)
DNA 1: AGTTTTTATTAAAACAAAATTTAATTATAACGTTGA
DNA 2: TCAACGTTATAATTAAATTTTGTTTTAATAAAAACT
B20: XGTACX_negctrl_site425 (dsDNA)
DNA 1: ATTTGTATATAATATATATAATTTTTTTTTTTTGTT
DNA 2: AACAAAAAAAAAAAATTATATATATTATATACAAAT
B21: XGTACX_negctrl_site452 (dsDNA)
DNA 1: TATCTCTACAAAATTTTATTCATTATTCATGTTATA
DNA 2: TATAACATGAATAATGAATAAAATTTTGTAGAGATA
B22: XGTACX_negctrl_site431 (dsDNA)
DNA 1: TTATTAAAATATACATTTGAAAGTAATCTTATTTAA
DNA 2: TTAAATAAGATTACTTTCAAATGTATATTTTAATAA
B23: XGTACX_negctrl_site340 (dsDNA)
DNA 1: AAAAAATAAATAAACATAAATAAATAAATAAATATA
DNA 2: TATATTTATTTATTTATTTATGTTTATTTATTTTTT
B24: XGTACX_negctrl_site375 (dsDNA)
DNA 1: AAATAAAATATATACATATATATATTATTTAGTAAT
DNA 2: ATTACTAAATAATATATATATGTATATATTTTATTT
B25: XGTACX_negctrl_site364 (dsDNA)
DNA 1: ATAAAATATTAGACATTTATTAATATTACACATATC
DNA 2: GATATGTGTAATATTAATAAATGTCTAATATTTTAT
B26: XGTACX_negctrl_site85 (dsDNA)
DNA 1: TACATATTTTGTATATATTATTTATTTTATTAGTTT
DNA 2: AAACTAATAAAATAAATAATATATACAAAATATGTA
B27: XGTACX_negctrl_site114 (dsDNA)
DNA 1: TATTATTGTCATTTTTTTTTTTTTTTTTTCTATTTC
DNA 2: GAAATAGAAAAAAAAAAAAAAAAAATGACAATAATA
B28: XGTACX_negctrl_site367 (dsDNA)
DNA 1: ATAAAATGATGTATCTGTGTATGTTTATTTTGTTTT
DNA 2: AAAACAAAATAAACATACACAGATACATCATTTTAT
B29: XGTACX_negctrl_site280 (dsDNA)
DNA 1: AATTAATATATAAATAATAAAAAAAAATATATAAAC
DNA 2: GTTTATATATTTTTTTTTATTATTTATATATTAATT
B30: XGTACX_negctrl_site407 (dsDNA)
DNA 1: AATATATATATAAATAATATACCTATATATTTTTTG
DNA 2: CAAAAAATATATAGGTATATTATTTATATATATATT
B31: XGTACX_negctrl_site428 (dsDNA)
DNA 1: AACAAGAAAAAAAAAAAAAAAAAAAAAAAATATTTT
DNA 2: AAAATATTTTTTTTTTTTTTTTTTTTTTTTCTTGTT
B32: XGTACX_negctrl_site466 (dsDNA)
DNA 1: TTTATATTTATATAAATATAATATATATGAATTATA
DNA 2: TATAATTCATATATATTATATTTATATAAATATAAA
B33: XGTACX_negctrl_site550 (dsDNA)
DNA 1: ACGTAATTAATTCATCAGATATAATTAATAATAATA
DNA 2: TATTATTATTAATTATATCTGATGAATTAATTACGT
B34: XGTACX_negctrl_site185 (dsDNA)
DNA 1: AAACAACAAAAATGATATATATAAAATTTATAATAT
DNA 2: ATATTATAAATTTTATATATATCATTTTTGTTGTTT
B35: XGTACX_negctrl_site397 (dsDNA)
DNA 1: TTTTTTTTCAATCTCTATATATTAAGGTTTATATTT
DNA 2: AAATATAAACCTTAATATATAGAGATTGAAAAAAAA
B36: XGTACX_negctrl_site42 (dsDNA)
DNA 1: AATGAATAACAATACTATATGATTTTTAATACATTA
DNA 2: TAATGTATTAAAAATCATATAGTATTGTTATTCATT
B37: XGTACX_negctrl_site234 (dsDNA)
DNA 1: ATTATAACTAAATAAATGATATATAATATTTTATTT
DNA 2: AAATAAAATATTATATATCATTTATTTAGTTATAAT
B38: XGTACX_negctrl_site318 (dsDNA)
DNA 1: GAAAAAAGGAAATAAAGAAAAAAAAAAATGAAATAT
DNA 2: ATATTTCATTTTTTTTTTTCTTTATTTCCTTTTTTC
B39: XGTACX_negctrl_site479 (dsDNA)
DNA 1: AATCAATTAATATTAGCATAAAATTTTATTATTTTG
DNA 2: CAAAATAATAAAATTTTATGCTAATATTAATTGATT
B40: XGTACX_negctrl_site434 (dsDNA)
DNA 1: ATGCAACTATATATATATATTATATGTATGAATAAT
DNA 2: ATTATTCATACATATAATATATATATATAGTTGCAT
B41: XGTACX_negctrl_site582 (dsDNA)
DNA 1: TATTAAAAGAAAAAAAAAAAAAAATTAATACATATA
DNA 2: TATATGTATTAATTTTTTTTTTTTTTTCTTTTAATA

In the series the target is T1, AP2-G D1. Put plainly: gcPBM; about 25 ug protein; PBS, 1% milk, 0.2 mg/ml BSA, salmon testes DNA, 0.03% Triton X-100. The conditions noted are these: tags: N-terminal GST (pGEX-4T-1), kept; label: surface-attached array probe.
Turning to B1, the binding signal is 9.5 ln median PBM intensity, better of two orientations.

B2: the binding signal was 9.47 ln median PBM intensity, better of two orientations. In the case of B3 it was 9.52 ln median PBM intensity, better of two orientations; in that of B4, 9.53 ln median PBM intensity, better of two orientations; in that of B5, 9.41 ln median PBM intensity, better of two orientations.

Regarding B6, the binding signal is 9.56 ln median PBM intensity, better of two orientations. For B7, the binding signal is 9.44 ln median PBM intensity, better of two orientations. With B8, the binding signal was 9.56 ln median PBM intensity, better of two orientations.

In the case of B9, the binding signal is 9.45 ln median PBM intensity, better of two orientations.

Take B10: the binding signal was 9.46 ln median PBM intensity, better of two orientations. In the case of B11 it was 9.55 ln median PBM intensity, better of two orientations. Under B12 stands 9.4 ln median PBM intensity, better of two orientations; under B13, 9.42 ln median PBM intensity, better of two orientations.

For the molecule B14, the binding signal is 9.34 ln median PBM intensity, better of two orientations. Regarding B15, the binding signal was 9.54 ln median PBM intensity, better of two orientations. In the case of B16, the binding signal was 9.32 ln median PBM intensity, better of two orientations.

Regarding B17, the binding signal was 9.42 ln median PBM intensity, better of two orientations. Turning to B18, the binding signal was 9.38 ln median PBM intensity, better of two orientations.

In the case of B19, the binding signal was 9.58 ln median PBM intensity, better of two orientations. For the molecule B20, the binding signal was 9.44 ln median PBM intensity, better of two orientations. Under B21 stands 9.53 ln median PBM intensity, better of two orientations; under B22, 9.42 ln median PBM intensity, better of two orientations; under B23, 9.52 ln median PBM intensity, better of two orientations.

With B24, the binding signal is 9.35 ln median PBM intensity, better of two orientations. In the case of B25 it was 9.58 ln median PBM intensity, better of two orientations; in that of B26, 9.55 ln median PBM intensity, better of two orientations; in that of B27, 9.51 ln median PBM intensity, better of two orientations. Under B28 stands 9.53 ln median PBM intensity, better of two orientations; under B29, 9.42 ln median PBM intensity, better of two orientations; under B30, 9.52 ln median PBM intensity, better of two orientations. Under B31 stands 9.36 ln median PBM intensity, better of two orientations; under B32, 9.51 ln median PBM intensity, better of two orientations. For the molecule B33, the binding signal was 9.41 ln median PBM intensity, better of two orientations.

Take B34: the binding signal was 9.32 ln median PBM intensity, better of two orientations. On to B35, for which the binding signal was 9.41 ln median PBM intensity, better of two orientations. As to B36, the binding signal was 9.52 ln median PBM intensity, better of two orientations. Under B37 stands 9.29 ln median PBM intensity, better of two orientations; under B38, 9.53 ln median PBM intensity, better of two orientations; under B39, 9.57 ln median PBM intensity, better of two orientations. On to B40, for which the binding signal is 9.5 ln median PBM intensity, better of two orientations.

B41: the binding signal was 9.38 ln median PBM intensity, better of two orientations.
